From the nanobody polyreactivity screen of Harvey et al. (2022) come the findings set out here.

The nature of this data set: yeast display, Sf9 membrane polyspecificity reagent, FACS + sequencing; frameworks hold sequencing errors. The gist of the method: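 Sorting gates, low and high (top ~1%), were placed on anti-HA fluorescence to track expression and on streptavidin fluorescence to track reagent binding. A clone's polyreactivity label is taken from the gate it came out of. The reagent was 10% biotinylated, detergent-solubilized Sf9 membrane, applied for 1 hour at 4 °C to galactose-induced yeast display cells.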
Consider “QVQLVESGGGLVQAGGSLRLSCAASGSTFVQYVMGWYRQAPGKERELVAAISSSGGSTYYADSVKGRFTISRDNAKNTVYLQMNSLKPEDTAVYYCAAYYFVAQARYDYWGQGTQVTVSS”, for which the “polyreactivity (PSR sort gate)” value was “high polyreactivity”.
In the case of “QVQLVESGGGLVQAGGSLRLSCAASGSTFVRNAMGWYRQAPGKERELVAAISRSGGRTYYADSVKGRFTISRDNAKNTVYLQMNSLKPEDNAVYYCNAVLGYYSYDYWGQGTQVTVSS”, the “polyreactivity (PSR sort gate)” value is reported as “high polyreactivity”.
For “QVQLVESGGGLVQAGGSLRLSCAASGSTFVRYAMGWYRQAPGKEREFVAAISKRGGSTYYADSVKGRFTISRDIAKNTVYLQMNSLKPEDTAVYYCATYLLRDAPGLHQVGYWGQGTQVTVSS”, the “polyreactivity (PSR sort gate)” value is listed as “high polyreactivity”.
In the case of “QVQLVESGGGLVQAGGSLRLSCAASGSTFVRYAMGWYRQAPGKERELVAAISKSGGSTYYADSVKGRFTISRDNAKNTVYLQMNSLKPEDTAVYYCNADVYKNSKFRIMGYWGQGTQVTVSS”, the “polyreactivity (PSR sort gate)” value is listed as “high polyreactivity”.
For the sequence “QVQLVESGGGLVQAGGSLRLSCAASGSTFVRYAMGWYRQAPGKEWELVARISGRSGSTYYADSEKGRFTISRDNAKNTVYLQMNSLKPEDTAVYFCAARAWYRVYAYDVWGQGTQVTVSS”, the “polyreactivity (PSR sort gate)” value is listed as “high polyreactivity”.
For “QVQLVESGGGLVQAGGSLRLSCAASGSTFVRYVMGWYRQAPGKERELVAAISRRGGSTYYADSVKGRFTIARDNAKNTVYLQMNSLKPDDTAVYYCAAVYRLRGAFSRGYWGQGTQVTVSS”, the “polyreactivity (PSR sort gate)” value is recorded as “high polyreactivity”.
Take “QVQLVESGGGLVQAGGSLRLSCAASGSTFVRYVMGWYRQAPGKERELVAAISRRGGSTYYADSVKGRFTISRDHAKNTVYLQMNSLKPEDTAVYYCARTVGYRTLLESDSWGQGTQVTVSS”: the “polyreactivity (PSR sort gate)” value was “high polyreactivity”.
“QVQLVESGGGLVQAGGSLRLSCAASGSTFVSNAMGWYRQAPGKERELVAAISTSGGSTYYADSVKGRFTISRDNAKNTVYLQMNSLKPEDTAVYYCAKLLARGFRIWQDYDYWGQGTEVTVSS”: the “polyreactivity (PSR sort gate)” value is “low polyreactivity”.
As for “QVQLVESGGGLVQAGGSLRLSCAASGSTFVSYAMGWYRQAPGKERELVAAISWSGGSTYYADSVKGRFTISRDNAKNTVYLQMNSLKTEDTAVYYCAAELDWWYDYWGQGTQVTVSS”, the “polyreactivity (PSR sort gate)” value was “high polyreactivity”.
In the case of “QVQLVESGGGLVQAGGSLRLSCAASGSTFVSYAMGWYRQAPGKERELVAAITWRGDSTYYADSVKGRFTISRDNAKNTVYLQMNSLKPEDTAVYYCAADGRSWRYYSPYYYWGQGTQVTVSS” it was “low polyreactivity”.
For the sequence “QVQLVESGGGLVQAGGSLRLSCAASGSTFVSYAMGWYRQAPGKERELVAAITWRGDSTYYADSVKGRFTLSRDNAKNTVYLQMNSLKPEDTAVYYCAADGRSWRYYSPYYYWGQGTQVTVSS”, the “polyreactivity (PSR sort gate)” value is reported as “low polyreactivity”.
Turning to “QVQLVESGGGLVQAGGSLRLSCAASGSTFVTYAMGWYRQAPGKEREFVAAISRTGGSTYYADSVKGRFTISRDNAKYTVYLQMNSLKPEDSAVYYCNRVGRGYSHNQYDLGYWGQGTLVTVSS”, the “polyreactivity (PSR sort gate)” value is given as “low polyreactivity”.
Turning to “QVQLVESGGGLVQAGGSLRLSCAASGSTFVTYTMGWYRQAPGKERELVAAISWSGDTTYADSVKGRFTISRDNAKNTVYLQMNSLKPEDTAVYYCAADDDWSGVEFDYWGQGTQVTVSS”, the “polyreactivity (PSR sort gate)” value is “low polyreactivity”.
For “QVQLVESGGGLVQAGGSLRLSCAASGSTFVVNAMGCYRQAPGKERELVAAITQSGGSTFYADSVKGRFTISRDNAKNTVYLQMNSLKPEDTAVYYWGQGTQVTVSS”, the “polyreactivity (PSR sort gate)” value is recorded as “low polyreactivity”.
“QVQLVESGGGLVQAGGSLRLSCAASGSTFVVNAMGWYRQAPGKERELVAAIRSGSSTNYADSVKGRFTISRDNAKNTVYLQMNSLKPEDTAVYYCAARSKYTHSRQSDYWGQGTQVTVSS”: the “polyreactivity (PSR sort gate)” value is “low polyreactivity”.
Then “QVQLVESGGGLVQAGGSLRLSCAASGSTFVWKAMGWYRQAPGKERELVAAISSSGGITYYADSVKGRFTISRDNAKNPVYLQMNSLKPEDTAVYYCAAERDDDWVNYWGQGTQVTVSS”, with “low polyreactivity”; and “QVQLVESGGGLVQAGGSLRLSCAASGSTFVWNAMGGYRQAPGKERELVAAITNDGRTNYADSVKGRFTISRDNAKNTVYLQMNSRKPEDTAVYYCNADGYNSYWWNYYWGQGTQVTVSS”, with “low polyreactivity”; and “QVQLVESGGGLVQAGGSLRLSCAASGSTFVWNAMGWYRQAPGKERELVATITLSTGSSYYADSVKGRFTISRDNAKNTVYLQMNSLKPEDTAVYYCNTEIYVDIISDYGYWGQGTQLTVSS”, with “low polyreactivity”.
Consider “QVQLVESGGGLVQAGGSLRLSCAASGSTFVWYAKGWYIQAPGKERELVAAINFGGTTYYADSVKGRFTISRDNAKNTVYLQMNSLKPEETAVYYCATEYDYGSWFPDGWGIFDYWGQGTQVTVSS”, for which the “polyreactivity (PSR sort gate)” value is on record as “low polyreactivity”.
As to “QVQLVESGGGLVQAGGSLRLSCAASGSTFVWYAMGRYRLAPGKERELVAVIDWSGGSTSYADSVKGRFTISRDNAKNTVYLQMNSLKPEDTAVYYCNKGSSLFHWYYHWGQGTQVTVSS”, the “polyreactivity (PSR sort gate)” value is reported as “low polyreactivity”.
Regarding “QVQLVESGGGLVQAGGSLRLSCAASGSTFVYNAMGWYRQAPGKEREFVAVINWSGGRTYADSVKGRFTISRDNAKNTVYLQMNSLKPEDTAVYYCNAERRTYRVALQYRRYDYWGQGTQVTVSS”, the “polyreactivity (PSR sort gate)” value is listed as “high polyreactivity”.
As for “QVQLVESGGGLVQAGGSLRLSCAASGSTFVYNAMGWYRQAPGKERELVAAITVIGGRTYYADSVKGRFTISRDNAKNTVYLQMNSLKPEDTAVYYCAAVTYWFWPGMDYWGQGTQVTVSS”, the “polyreactivity (PSR sort gate)” value is recorded as “low polyreactivity”.
In the case of “QVQLVESGGGLVQAGGSLRLSCAASGSTFVYNAMGWYRQAPGKERELVAGISSSGGRTYYADSVKGRFTISRDNAKNTVYLQMNSLKPEDTAVYYCATGYRQGEYDYWGQGTQVTVSS”, the “polyreactivity (PSR sort gate)” value is listed as “low polyreactivity”.
For “QVQLVESGGGLVQAGGSLRLSCAASGSTFVYNAMGWYRQAPGKERELVAGISSSGGRTYYADSVKGRFTISRDNAKNTVYLQMNSLKPEDTAVYYCNVVTYRRFDYWGQGTQVTVSS”, the “polyreactivity (PSR sort gate)” value is reported as “low polyreactivity”.
Consider “QVQLVESGGGLVQAGGSLRLSCAASGSTFVYNDMGWYRQAPGKEREFVAVINWSGGRTYADSVKGRFTISRDNAKNTVYLQMNSLKPEDTAVYYCNARRRTGYRPAMDYWGQGTQVTVSS”, for which the “polyreactivity (PSR sort gate)” value was “high polyreactivity”.
In the case of “QVQLVESGGGLVQAGGSLRLSCAASGSTFVYNTMGWYRQAPGKERELVAAISKSGTNTFYADSVKGRFTISRDNAKNTVYLQMNSLKPEDTAVYYCAVRSVPRWFTELDYWGQGTQVTVSS” it was “low polyreactivity”; in that of “QVQLVESGGGLVQAGGSLRLSCAASGSTFVYYAMGWYRQAPGKEREFVAGITRRTGSTYYADSVKGRFTISRDNAKNTVYLQMNSLKPEDTAVYYCAKRDARATPFGYWGQGTQVTVSS”, “high polyreactivity”; in that of “QVQLVESGGGLVQAGGSLRLSCAASGSTFVYYAMGWYRQAPGKERELVAAISYSGGRTYYADSVKGRFTISRDNAKNTVYLQMNSLKQEDTAVYYCAAAYVKFYGYSAEYDYWGQGTQVTVSS”, “low polyreactivity”.
Take “QVQLVESGGGLVQAGGSLRLSCAASGSTFVYYAMGWYRQAPGKERELVATINYNGGSTSYADSVKGRFTISRDNEKNTVYLQMNSLKPEDTAVYYCAKDRYYTWGDYWGQGTQVTVSS”: the “polyreactivity (PSR sort gate)” value is reported as “low polyreactivity”.
On to “QVQLVESGGGLVQAGGSLRLSCAASGSTFVYYAMGWYRQAPGKERELVAVISDDGGTYYADSVKGRFSISRDNAKNTVYLQMNSLKPEDTAVYYCAKDYYGGAYYWYNDRSGDYWGQGTQVTVSS”, for which the “polyreactivity (PSR sort gate)” value is given as “low polyreactivity”.
Consider “QVQLVESGGGLVQAGGSLRLSCAASGSTFVYYAMGWYRQAPGTERELVAAITGSVDSTYYADSVKGRFTISRDNAKNPVYLQMNSLQPEDTAVYYCAADTYSTYWGQGTQVTVSS”, for which the “polyreactivity (PSR sort gate)” value is “low polyreactivity”.
As for “QVQLVESGGGLVQAGGSLRLSCAASGSTFWANAMGWYRQAPGKERELVAAITSTGITYYADSVKGRFTISRDNAKNTVYLQMNSLKPEDTAVYYCNTRGTYRYDYWGQGTQVTVSS”, the “polyreactivity (PSR sort gate)” value was “low polyreactivity”.
Take “QVQLVESGGGLVQAGGSLRLSCAASGSTFWAYALGWYRHAPGKERELVAAITTGGGRTFYADSVMGRFTISRDNGKNTVYLQLNSLIPEDTAVYYCGAVSQSYRMYYWGQGTQVTVSS”: the “polyreactivity (PSR sort gate)” value is “low polyreactivity”.
Consider “QVQLVESGGGLVQAGGSLRLSCAASGSTFWAYVMGWYRQAPGKERELVAAISKSGVRTHYADSVKGRFTISRDNAKNTVYLQMNSLKPEDNAVYYCAAGGVGNLDDYWGQGTQVTVSS”, for which the “polyreactivity (PSR sort gate)” value is “high polyreactivity”.
Consider “QVQLVESGGGLVQAGGSLRLSCAASGSTFWDYDMGWYRQAPGKERELVASIRNGGSTNYADSVKGRFTISRDNAKNTVYLQMNSLKPEDTAVYYCAADRQPVYPSLGVYWDYGHDYWGQGTQVTVSS”, for which the “polyreactivity (PSR sort gate)” value was “low polyreactivity”.
In the case of “QVQLVESGGGLVQAGGSLRLSCAASGSTFWFNAMGWYRQAPGKERELVAAISGRGGNTYYADSVKGRFTISRVNAKNTVYLQMYSLKPEDTAVYYCNAVYLYAYRVRYYYGRYDYWGQGTQVTVSS”, the “polyreactivity (PSR sort gate)” value was “high polyreactivity”.
In the case of “QVQLVESGGGLVQAGGSLRLSCAASGSTFWFNAMGWYRQAPGKERELVAAITYRGASTNYADSVKGRFTISRDNAKNTVYLQMNSLKPEDTAVYYCATRPTWRPVPDSDVSTYGYWGQGTQVTVSS” it was “low polyreactivity”; in that of “QVQLVESGGGLVQAGGSLRLSCAASGSTFWFNDMGWYRQAPGKEREFVAAISSIGGSTYYADSVKGRFTISRDNAKNTVYLQMNSLKPEDTAVYYCAADRLQYYNPYDYWGQGTQVTVSS”, “low polyreactivity”.
Then “QVQLVESGGGLVQAGGSLRLSCAASGSTFWFYAMGWYRQAPGKERELDAAISNGDSTNYADSVKGRFTISRDNAKNTVYLQMNSLKPEDTAVYYCAADQVYGIGYEYWGQGTQVTVSS”, with “low polyreactivity”; and “QVQLVESGGGLVQAGGSLRLSCAASGSTFWFYAMGWYRQSPGKERELVAVISNSGSTYYADSVKGRFTISRDNAKNTVYLQMNSLKPEDTAVYYCNKDGGGDSYWYDYWGQGTQVTVSS”, with “low polyreactivity”.
On to “QVQLVESGGGLVQAGGSLRLSCAASGSTFWGYAMGWSRQAPGKERELVASITTSDSTYYADSVKGRFTISRDNAKNTVYLQMNSLKPEDSAVYYCAADETWPEYDYWGQGSQVTVSS”, for which the “polyreactivity (PSR sort gate)” value was “low polyreactivity”.
